Data published in patent publication US7351690B2, “Knockout identification of target-specific sites in peptides” (priority 2000, dated 2008).
Square brackets hold non-standard residues; d marks the D form. Ends that are not written are not given here. Nle = CCCC[C@H](N)C(=O)O

Assays:
MC1-R = target: T1, MC1-R (Mus musculus, UniProt Q01727); experiment: competitive inhibition binding assay, 125I-NDP-alpha-MSH, B-16 mouse melanoma cell membranes; details: for % Inhibition at 1 μM at Melanocortin Receptor 1: 1 μM test peptide, 0.4 nM 125I-NDP-alpha-MSH, B-16 mouse melanoma cell membranes
T1 construct: membranes prepared from hMC3-R, hMC4-R, hMC5-R, and B-16 mouse melanoma cells (containing MC1-R); endogenous in cells; host or cells: B-16 mouse melanoma cells (membranes)
T1 sequence (Q01727 whole entry): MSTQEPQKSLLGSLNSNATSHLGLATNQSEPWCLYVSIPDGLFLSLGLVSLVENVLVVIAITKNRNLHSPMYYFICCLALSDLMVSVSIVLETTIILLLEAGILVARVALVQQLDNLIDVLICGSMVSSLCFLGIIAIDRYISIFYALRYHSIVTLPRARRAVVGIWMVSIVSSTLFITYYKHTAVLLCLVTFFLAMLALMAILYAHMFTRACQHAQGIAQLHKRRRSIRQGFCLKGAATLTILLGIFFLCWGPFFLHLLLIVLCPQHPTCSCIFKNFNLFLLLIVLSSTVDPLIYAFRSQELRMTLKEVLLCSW
Experimental: (§1) The competitive inhibition binding assay was conducted using membranes prepared from hMC3-R, hMC4-R, hMC5-R, and B-16 mouse melanoma cells (containing MC1-R) using 0.4 nM ^125I-NDP-alpha-MSH (New England Nuclear, Boston, Mass., USA) in 50 mM HEPES buffer containing 1 mM MgCl2, 2 mM CaCl2, and 5 mM KCl, at pH 7.2. The assay tube also contained a chosen concentration of the test peptide of this invention complexed to a rhenium metal ion, typically at a 1 μM concentration, for determining its efficacy in inhibiting the binding of ^125I-NDP-alpha-MSH to its receptor. Non-specific binding was measured by complete inhibition of binding of ^125I-NDP-alpha-MSH in the assay with the presence of 1 μM alpha-MSH. Incubation was for 90 minutes at room temperature, after which the assay mixture was filtered and the membranes washed three times with ice cold buffer. The filter was dried and counted in a gamma counter for remaining radioactivity bound to the membranes. 100% specific binding was defined as the difference in radioactivity (cpm) bound to cell membranes in the absence and presence of 1 μM alpha-MSH. The cpm obtained in presence of test compounds were normalized with respect to 100% specific binding to determine the percent inhibition of ^125I-NDP-alpha MSH binding. Each assay was conducted in triplicate and the actual mean valves are described.

hMC3-R = target: T2, hMC3-R (Homo sapiens, UniProt P41968); experiment: competitive inhibition binding assay, 125I-NDP-alpha-MSH, hMC3-R membranes; details: for % Inhibition at 1 μM at Melanocortin Receptor 3: 1 μM test peptide, 0.4 nM 125I-NDP-alpha-MSH, hMC3-R membranes
T2 construct: expressed in transfected cells
T2 sequence (P41968 whole entry): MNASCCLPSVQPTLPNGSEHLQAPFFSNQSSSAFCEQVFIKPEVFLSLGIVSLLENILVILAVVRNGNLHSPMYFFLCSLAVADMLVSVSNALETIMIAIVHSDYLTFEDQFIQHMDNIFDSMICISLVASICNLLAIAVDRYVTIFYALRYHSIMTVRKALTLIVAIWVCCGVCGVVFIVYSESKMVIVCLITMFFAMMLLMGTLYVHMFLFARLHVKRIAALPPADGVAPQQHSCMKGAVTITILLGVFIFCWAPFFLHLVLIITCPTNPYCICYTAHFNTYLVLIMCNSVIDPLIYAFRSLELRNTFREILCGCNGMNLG
Experimental: as §1

hMC4-R = target: T3, hMC4-R (Homo sapiens, UniProt P32245); experiment: competitive inhibition binding assay, 125I-NDP-alpha-MSH, hMC4-R membranes; details: for % Inhibition at 1 μM at Melanocortin Receptor 4: 1 μM test peptide, 0.4 nM 125I-NDP-alpha-MSH, hMC4-R membranes
T3 construct: expressed in transfected cells
T3 sequence (P32245 whole entry): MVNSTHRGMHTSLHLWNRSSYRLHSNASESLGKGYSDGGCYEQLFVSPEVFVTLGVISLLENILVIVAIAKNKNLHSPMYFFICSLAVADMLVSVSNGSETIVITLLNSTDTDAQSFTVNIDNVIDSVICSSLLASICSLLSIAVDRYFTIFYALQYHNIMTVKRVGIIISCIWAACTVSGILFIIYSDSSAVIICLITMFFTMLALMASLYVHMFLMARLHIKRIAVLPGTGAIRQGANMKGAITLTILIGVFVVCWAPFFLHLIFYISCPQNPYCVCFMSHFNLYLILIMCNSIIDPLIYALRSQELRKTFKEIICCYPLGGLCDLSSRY
Experimental: as §1

hMC5-R = target: T4, hMC5-R (Homo sapiens, UniProt P33032); experiment: competitive inhibition binding assay, 125I-NDP-alpha-MSH, hMC5-R membranes; details: for % Inhibition at 1 μM at Melanocortin Receptor 5: 1 μM test peptide, 0.4 nM 125I-NDP-alpha-MSH, hMC5-R membranes
T4 construct: expressed in transfected cells
T4 sequence (P33032 whole entry): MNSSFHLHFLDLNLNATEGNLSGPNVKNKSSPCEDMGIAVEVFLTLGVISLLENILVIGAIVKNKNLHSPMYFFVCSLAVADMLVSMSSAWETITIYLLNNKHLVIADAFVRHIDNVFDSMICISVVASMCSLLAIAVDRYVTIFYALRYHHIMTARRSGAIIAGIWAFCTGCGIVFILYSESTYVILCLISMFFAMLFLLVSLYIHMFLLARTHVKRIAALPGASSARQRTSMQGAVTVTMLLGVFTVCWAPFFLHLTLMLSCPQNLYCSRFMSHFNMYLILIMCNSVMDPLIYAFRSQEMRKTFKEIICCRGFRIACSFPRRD
Experimental: as §1

bombesin receptor = experiment: competitive binding assay, 125I-Bombesin, rat brain membranes
Experimental: Rat brain membranes were utilized as the source of bombesin receptor. The competitive binding assay was performed using a procedure as described by Moody T W, Perk C B, Rivier J, Brown, M R. (Proc Natl Acad Sci USA. 75:5372-5376, […]) and adapted to a 96 well format. An aliquot of membranes taken in assay buffer (50 mM Tris and HCl, pH 7.4 containing 1 mg/mL BSA and 2 μg/mL bacitracin) was incubated with 0.01 nM of ^125I-Bombesin with or without varying concentrations of the test compound for 60 min at 4° C. The incubation was terminated by rapid filtration of the assay mixture, followed by washing the filters with ice-cold buffer. The filters were dried and counted in a gamma counter for retained radioactivity. Non-specific binding was measured by including 1 μM Bombesin in the assay tube. The assay was performed in triplicate and results calculated to determine percentage inhibition of the ^125I-Bombesin binding to its receptors by a test compound. The parent polypeptide is shown in Table 6, with metallopeptides having Cys inserted as shown.

Substance	% Inhibition at 1 μM at Melanocortin Receptor 1 (MC1-R)	% Inhibition at 1 μM at Melanocortin Receptor 3 (hMC3-R)	% Inhibition at 1 μM at Melanocortin Receptor 4 (hMC4-R)	% Inhibition at 1 μM at Melanocortin Receptor 5 (hMC5-R)	binding to MC1-R, in words (MC1-R)	binding to MC3-R, in words (hMC3-R)	binding to MC4-R, in words (hMC4-R)	binding to MC5-R, in words (hMC5-R)	binding to bombesin receptor, in words (bombesin receptor)	% Inhibition (bombesin receptor; inhibition of 0.01 nM 125I-Bombesin binding, rat brain membranes, test concentration not given)
Tyr-Val-Nle-Gly-His-D-Phe-Arg-Trp-Asp-Cys-Arg-Phe-NH2 (YV[Nle]GH[dF]RWDCRF-NH2; also: Re complex) [3-3]	99%	95%	99%	99%						
Ac-Ser-Tyr-Cys-Ser-Nle-Glu-His-Phe-Arg-Trp-Gly-Lys-Pro-Val-NH2 (chain 1 Ac-SYCS[Nle]; chain 2 EHFRWGKPV-NH2; not fully specified (bridges); printed as Ac-Ser-Tyr-Cys-Ser-Nle-Glu-His-Phe-Arg-Trp-Gly-Lys-Pro-Val-NH2; also: oxorhenium(V) N3S1 chelate (Re(V)=O)) [1-12]	96%	15%	26%	19%						
Ac-Ser-Tyr-Ser-Nle-Glu-His-Phe-Arg-Trp-Gly-D-Cys-Lys-Pro-Val-NH2 (chain 1 EHFRWG; chain 2 CKPV; not fully specified; Ac-Ser-Tyr-Ser-Nle N-term; D-residue; amide; printed: Glu-His-Phe-Arg-Trp-Gly-; printed: Cys-Lys-Pro-Val-) [2-4]	91%	27%	40%	21%						
Tyr-Val-Nle-Gly-Cys-D-Phe-Arg-Trp-Asp-Arg-Phe-NH2 (YV[Nle]GC[dF]RWDRF-NH2; not fully specified (bridges); printed as Tyr-Val-Nle-Gly-Cys-D-Phe-Arg-Trp-Asp-Arg-Phe-NH2; numbers in words are those of the source; also: oxorhenium(V) N3S1 chelate complex (Re=O)) [5-7]	89%	70%	69%	88%						
Tyr-Val-Nle-Gly-His-D-Phe-Arg-Trp-Asp-Cys-Phe-NH2 (YV[Nle]GH[dF]RWDCF-NH2; numbers in words are those of the source; also: oxorhenium(V) N3S1 chelate complex (Re=O)) [5-2]	95%	39%	58%	61%						
Ac-Ser-Tyr-Ser-Nle-Glu-Cys-His-Phe-Arg-Trp-Gly-Lys-Pro-Val-NH2 (Ac-SYS[Nle]ECHFRWGKPV-NH2; not fully specified (bridges); printed as Ac-Ser-Tyr-Ser-Nle-Glu-Cys-His-Phe-Arg-Trp-Gly-Lys-Pro-Val-NH2; numbers in words are those of the source; also: oxorhenium(V) N3S1 chelate (Re(V)=O)) [1-9]	74%	0%	3%	6%						
Tyr-Val-Nle-Gly-His-D-Phe-Arg-Trp-Cys-Asp-Arg-Phe-NH2 (YV[Nle]GH[dF]RWCDRF-NH2; also: Re complex) [3-4]	98%	88%	94%	100%						
Ac-Ser-Tyr-D-Cys-Ser-Nle-Glu-His-Phe-Arg-Trp-Gly-Lys-Pro-Val-NH2 (Ac-SY[dC]S[Nle]EHFRWGKPV-NH2; not fully specified (bridges); printed as Ac-Ser-Tyr-D-Cys-Ser-Nle-Glu-His-Phe-Arg-Trp-Gly-Lys-Pro-Val-NH2; numbers in words are those of the source; also: oxorhenium(V) N3S1 chelate (Re(V)=O)) [2-12]	97%	21%	47%	17%						
Ac-Ser-Tyr-Ser-Nle-Glu-His-Phe-Arg-Cys-Trp-Gly-Lys-Pro-Val-NH2 (Ac-SYS[Nle]EHFRCWGKPV-NH2; not fully specified (bridges); printed as Ac-Ser-Tyr-Ser-Nle-Glu-His-Phe-Arg-Cys-Trp-Gly-Lys-Pro-Val-NH2; numbers in words are those of the source; also: oxorhenium(V) N3S1 chelate (Re(V)=O)) [1-6]	29%	0%	0%	0%						
Tyr-Val-Nle-Gly-His-Phe-Arg-Trp-Asp-Cys-Arg-Phe-NH2 (YV[Nle]GHFRWDCRF-NH2; numbers in words are those of the source; also: oxorhenium(V) N3S1 chelate (Re=O) with Cys) [4-3]	44%	18%	23%	65%						
Tyr-Val-Nle-Gly-His-Cys-D-Phe-Arg-Trp-Asp-Arg-Phe-NH2 [3-7] (YV[Nle]GHC[dF]RWDRF-NH2; numbers in words are those of the source; also: oxorhenium(V) N3S1 chelate complex (Re=O))	39%	50%	28%	56%						
Tyr-Val-Nle-Gly-His-Phe-Arg-Trp-Asp-Arg-Phe-NH2 (GHFRWDRF; N-terminal Tyr-Val-Nle, C-terminal amide; printed: Gly-His-Phe-Arg-Trp-Asp-Arg-Phe-) [Parent, reference compound]					high affinity	high affinity	moderate affinity	moderate affinity		
Ac-Ser-Tyr-Ser-D-Cys-Nle-Glu-His-Phe-Arg-Trp-Gly-Lys-Pro-Val-NH2 (Ac-SYS[dC][Nle]EHFRWGKPV-NH2; not fully specified (bridges); printed as Ac-Ser-Tyr-Ser-D-Cys-Nle-Glu-His-Phe-Arg-Trp-Gly-Lys-Pro-Val-NH2; numbers in words are those of the source; also: oxorhenium(V) N3S1 chelate (Re(V)=O)) [2-11]	95%	5%	37%	0%						
Tyr-Val-Nle-Gly-His-Phe-Cys-Arg-Trp-Asp-Arg-Phe-NH2 (YV[Nle]GHFCRWDRF-NH2; numbers in words are those of the source; also: oxorhenium(V) N3S1 chelate (Re=O) with Cys) [4-6]	−8%	5%	−2%	24%						
Tyr-Val-Nle-Gly-His-D-Phe-Arg-Cys-Asp-Arg-Phe-NH2 (YV[Nle]GH[dF]RCDRF-NH2; numbers in words are those of the source; also: oxorhenium(V) N3S1 chelate complex (Re=O)) [5-4]	86%	11%	18%	58%						
D-Phe-Gln-Trp-Ala-Cys-Gly-His-Leu-Leu-NH2 ([dF]QWACGHLL-NH2; also: oxorhenium(V) N3S1 tetradentate complex via Cys) [9-5]									least activity	17%
